Laboratory results: US20250109212A1

B1: BSI038×S-004 (bispecific antibody, human IgG2, kappa)
heavy: EEELQVIQPDKSVSVAAGESAILHCTITSLIPVGPIQWFRGAGPARELIYNQREGHFPRVTTVSETTKRENMDFSISISNITPADAGTYYCVKFRKGSPDTEFKSGAGTELSVRAKPSAPVVSGPAARATPGGGGSGGGGSEVQLVESGGGLVKPGGSLRLSCAASGFTFSNYGISWVRQAPGKGLEWVSSISSGGDNTYYPDNVKGRFTISRDNAKNSLYLQMNSLRAEDTAVYYCARAGEKAMDYWGQGTLVTVSSASTKGPSVFPLAPCSRSTSESTAALGCLVKDYFPEPVTVSWNSGALTSGVHTFPAVLQSSGLYSLSSVVTVPSSNFGTQTYTCNVDHKPSNTKVDKTVERKCCVECPPCPAPPVAGPSVFLFPPKPKDTLMISRTPEVTCVVVDVSHEDPEVQFNWYVDGVEVHNAKTKPREEQFNSTFRVVSVLTVVHQDWLNGKEYKCKVSNKGLPAPIEKTISKTKGQPREPQVYTLPPSREEMTKNQVSLTCLVKGFYPSDIAVEWESNGQPENNYKTTPPMLDSDGSFFLYSKLTVDKSRWQQGNVFSCSVMHEALHNHYTQKSLSLSPGK
light: EIVLTQSPATLSLSPGERATLSCRASQTINNNLHWYQQKPGQAPRLLIKYASQSISGIPARFSGSGSGTDFTLTISSLEPEDFAVYFCQQFSSWPLTFGGGTKVEIKRTVAAPSVFIFPPSDEQLKSGTASVVCLLNNFYPREAKVQWKVDNALQSGNSQESVTEQDSKDSTYSLSSTLTLSKADYEKHKVYACEVTHQGLSSPVTKSFNRGEC
B2: BSI038×S-005 (bispecific antibody, human IgG2, kappa)
heavy: EEELQVIQPDKSVSVAAGESAILHCTITSLIPVGPIQWFRGAGPARELIYNQREGHFPRVTTVSETTRRENMDFSISISNITPADAGTYYCVKFRKGSPDTEVKSGAGTELSVRAKPSAPVVSGPAARATPGGGGSGGGGSEVQLVESGGGLVKPGGSLRLSCAASGFTFSNYGISWVRQAPGKGLEWVSSISSGGDNTYYPDNVKGRFTISRDNAKNSLYLQMNSLRAEDTAVYYCARAGEKAMDYWGQGTLVTVSSASTKGPSVFPLAPCSRSTSESTAALGCLVKDYFPEPVTVSWNSGALTSGVHTFPAVLQSSGLYSLSSVVTVPSSNFGTQTYTCNVDHKPSNTKVDKTVERKCCVECPPCPAPPVAGPSVFLFPPKPKDTLMISRTPEVTCVVVDVSHEDPEVQFNWYVDGVEVHNAKTKPREEQFNSTFRVVSVLTVVHQDWLNGKEYKCKVSNKGLPAPIEKTISKTKGQPREPQVYTLPPSREEMTKNQVSLTCLVKGFYPSDIAVEWESNGQPENNYKTTPPMLDSDGSFFLYSKLTVDKSRWQQGNVFSCSVMHEALHNHYTQKSLSLSPGK
light: EIVLTQSPATLSLSPGERATLSCRASQTINNNLHWYQQKPGQAPRLLIKYASQSISGIPARFSGSGSGTDFTLTISSLEPEDFAVYFCQQFSSWPLTFGGGTKVEIKRTVAAPSVFIFPPSDEQLKSGTASVVCLLNNFYPREAKVQWKVDNALQSGNSQESVTEQDSKDSTYSLSSTLTLSKADYEKHKVYACEVTHQGLSSPVTKSFNRGEC
B3: SIRPαV2D1M1-Fc (IgG2) (Fc fusion)
chain: EEELQVIQPDKSVSVAAGESAILHCTITSLIPVGPIQWFRGAGPARELIYNQREGHFPRVTTVSETTKRENMDFSISISNITPADAGTYYCVKFRKGSPDTEFKSGAGTELSVRAKPSAPVVSGPAARATPGGGGSGGGGSERKCCVECPPCPAPPVAGPSVFLFPPKPKDTLMISRTPEVTCVVVDVSHEDPEVQFNWYVDGVEVHNAKTKPREEQFNSTFRVVSVLTVVHQDWLNGKEYKCKVSNKGLPAPIEKTISKTKGQPREPQVYTLPPSREEMTKNQVSLTCLVKGFYPSDIAVEWESNGQPENNYKTTPPMLDSDGSFFLYSKLTVDKSRWQQGNVFSCSVMHEALHNHYTQKSLSLSPGK
B4: SIRPαV2D1M2-Fc (IgG2) (Fc fusion)
chain: EEELQVIQPDKSVSVAAGESAILHCTITSLIPVGPIQWFRGAGPARELIYNQREGHFPRVTTVSETTRRENMDFSISISNITPADAGTYYCVKFRKGSPDTEVKSGAGTELSVRAKPSAPVVSGPAARATPGGGGSGGGGSERKCCVECPPCPAPPVAGPSVFLFPPKPKDTLMISRTPEVTCVVVDVSHEDPEVQFNWYVDGVEVHNAKTKPREEQFNSTFRVVSVLTVVHQDWLNGKEYKCKVSNKGLPAPIEKTISKTKGQPREPQVYTLPPSREEMTKNQVSLTCLVKGFYPSDIAVEWESNGQPENNYKTTPPMLDSDGSFFLYSKLTVDKSRWQQGNVFSCSVMHEALHNHYTQKSLSLSPGK

The binders below were run against full length human CD47 (NCBI #NP_942088.1) on 293F-CD47 cells (human) (UniProt Q08722) (assay: cell-based blocking FACS on 293F-CD47 cells, blocked ligand biotin-labeled human CD172a-Fc, MFI).

Row | Binder | IC50
1 | B1 | 1.8 nM
2 | B2 | 1.73 nM
3 | B3 | 1.84 nM
4 | B4 | 2.37 nM
